Assay results: patent publication US9309315B2, “Therapy with CD4 binding peptides and radiation” (GENMAB A/S, priority 2005, dated 2016)

Assays:
Assay type in all cases: cell-based, human
Dok-1 = test: SH2-precipitation (SH2C-RasGAP-GST) and Dok-1 blot of lysates from CD4+ T cells incubated with zanolimumab; details: SH2-precipitate; for amount of precipitated Dok-1 after inhibitor pre-treatment: cells pre-incubated with inhibitor before zanolimumab exposure, FIG. 3D
Procedure: (§1) FIG. 3 illustrates results from CD4^+ T cells incubated with zanolimumab or a human immunoglobulin negative control. Cell lysates were CD4-precipitated (A), SH2-precipitated (B, D) or used as whole lysate (C). FIG. 3A: Two CD4-precipitates were submitted to a kinase assay (upper two panels). Blots were probed with antibodies to p56^Ick (top panel), the p56^Ick substrate α-casein (second panel), Y-394 phosphorylated p56^Ick (third panel), p56^Ick (fourth panel) or CD4 (bottom panel). The numbers below the blots represent densitometric values normalized for p56^Ick loading. FIG. 3B: Blots with SH2-precipitate were incubated with antibodies to Dok-1 (top panel) or GST (bottom panel). The numbers below the blots represent densitometric values normalized for GST loading. FIG. 3C: Proteins in whole cell lysate were separated by SDS-PAGE and blotted. Membranes were incubated with antibodies to phosphorylated SHIP-1 (top panel) or SHIP-1 regardless of phosphorylation status (bottom panel). The numbers below the blots represent densitometric values normalized for SHIP-1 loading. FIG. 3D: Before zanolimumab exposure, cells were pre-incubated with Src kinase inhibitors PP2 or damnacanthal (DAM). Blots were incubated with antibodies for Dok-1 (top panel) or GST (bottom panel). The numbers below the blots represent densitometric values normalized for GST loading. Results for the experiments shown here are representative of 4 independent experiments.
The activation of inhibitory adaptor molecules in T cells presented in FIG. 3 were obtained with CD4^+ T cells isolated as described in example 1. CD4^+ T cells (3×10E7 cells) were incubated with zanolimumab and, when appropriate, pre-incubated with Src kinase inhibitors PP2 or damnacanthal (Merck Biosciences, Nottingham, UK) before exposure to zanolimumab. Cell lysates were incubated with CD4-precipitating antibody and antibody-bound proteins were precipitated with protein-G sepharose. […] Proteins were detected with an HRP-conjugated secondary antibody, visualized by ECL and quantified using a phosphor-imager.

CD4^+ T cells = test: Western blotting of T-cell signaling molecules in CD4+ T cells incubated with zanolimumab and stimulated with immobilized CD3 monoclonal antibody (OKT3)
Procedure: FIG. 2 illustrates results of Western blotting of cell lysates prepared from CD4^+ T cells stimulated with CD3 monoclonal antibody and zanolimumab. CD4^+ T cells were incubated with HuMax-CD4 and then stimulated with CD3 monoclonal antibody (OKT3) immobilized onto latex beads. Proteins in duplicate cell lysate samples were separated by 7-15% gradient gel SDS-PAGE and were transferred onto blotting membranes by electrophoresis. One membrane was incubated with a phosphotyrosine specific antibody, stripped and then re-probed with TCRζ and LAT specific antibodies (FIG. 2A). The other was incubated with antibodies to the phosphorylated form of specific proteins, stripped and then re-probed with ZAP-70 (2B), Erk1/2, p38 and AKT antibodies (2C). The numbers below the blots represent densitometric values normalized for loading relative to values observed after 2 min of CD3-stimulation in the absence of HuMax-CD4. Results for the experiments shown here are representative of 4 independent experiments.
The effect on T-cell signaling molecules upon T-cell activation presented in FIG. 2 were obtained with CD4^+ T cells isolated from peripheral blood from healthy donors. CD4^+ T cells were isolated using enrichment RosetteSep cocktail (Stemcell Technologies Inc, Canada) and separated by lymphoprep (Axis Shield, Poc AS, Norway) density centrifugation. CD4^+ T cells (10^7 cells) were incubated with zanolimumab and then stimulated with CD3 monoclonal antibody (OKT3, available from Orthoclone, Pharmacy, UMC, Utrecht) immobilized onto latex beads. Cell were lysed using lysis buffer (1% Nonidet P-40, 20 mM Tris-HCl, pH 7.4, 150 mM NaCl, 2 mM EGTA, 1 mM Na3VO4, 10 mM NaF, 10 mM sodium pyrophosphate and protease inhibitors (Roche Molecular Biochemicals, Sussex, UK)). Proteins in duplicate cell lysate samples were separated by 7-15% gradient gel SDS-PAGE and transferred onto blotting membranes by electrophoresis. Membranes were incubated with antibodies for specific tyrosine-phosphorylated proteins, stripped and then re-probed with antibodies recognizing the specific proteins regardless of their phosphorylation status. Proteins were detected with an HRP-conjugated secondary antibody, visualized by ECL and quantified using a phosphor-imager.

SHIP-1 = test: Whole cell lysate blot for phosphorylated SHIP-1 in CD4+ T cells incubated with zanolimumab; details: FIG. 3C
Procedure: as §1, with “FIG. 3D: Before zanolimumab exposure, cells were pre-incubated with Src kinase inhibitors PP2 or damnacanthal (DAM). Blots were incubated with antibodies for Dok-1 (top panel) or GST (bottom panel). The numbers below the blots represent densitometric values normalized for GST loading. Results for the experiments shown here are representative of 4 independent experiments.” left out
The activation of inhibitory adaptor molecules in T cells presented in FIG. 3 were obtained with CD4^+ T cells isolated as described in example 1. […] Proteins were detected with an HRP-conjugated secondary antibody, visualized by ECL and quantified using a phosphor-imager.

| Molecule | amount of precipitated Dok-1 after inhibitor pre-treatment (Dok-1) | tyrosine-phosphorylation of intracellular proteins following TCR stimulation (CD4^+ T cells; TCR stimulation via immobilized CD3 monoclonal antibody, FIG. 2A) | phosphorylation of LAT (36-38 kDa) (CD4^+ T cells; after CD3 stimulation, FIG. 2A) | phosphorylation of p21 and p23 phosphorylated isomers of the TCR-ζ chain (CD4^+ T cells; after CD3 stimulation, FIG. 2A) | phosphorylation of ZAP-70 (CD4^+ T cells; after CD3 stimulation, FIG. 2B) | AKT/PKB downstream signaling pathway (CD4^+ T cells; after CD3 stimulation, FIG. 2C) | Erk1/2 downstream signaling pathway (CD4^+ T cells; after CD3 stimulation, FIG. 2C) | p38 serine/threonine downstream signaling pathway (CD4^+ T cells; after CD3 stimulation, FIG. 2C) | inhibition of the very earliest T-cell activation events (CD4^+ T cells; summary of Example 1, densitometry relative to CD3 stimulation without antibody) | phosphorylation of Dok-1 (Dok-1; FIG. 3B) | phosphorylation of SHIP-1 (SHIP-1) |
| --- | --- | --- | --- | --- | --- | --- | --- | --- | --- | --- | --- |
| CC(C)(C)n1nc(-c2ccc(Cl)cc2)c2c(N)ncnc21 [PP2] | reduced amount of precipitated Dok-1 |  |  |  |  |  |  |  |  |  |  |
| COc1c(C=O)c(O)cc2c1C(=O)c1ccccc1C2=O [damnacanthal] | reduced amount of precipitated Dok-1 |  |  |  |  |  |  |  |  |  |  |
| zanolimumab (antibody, listed as Homo sapiens, V domains shown, anti CD4 Vh; anti CD4 VL, anti-CD4 monoclonal human antibody (GenMab, Denmark), same as 6G5 of WO97/13852) VH: QVQLQQWGAGLLKPSETLSLTCAVYGGSFSGYYWSWIRQPPGKGLEWIGEINHSGSTNYNPSLKSRVTISVDTSKNQFSLKLSSVTAADTAVYYCARVINWFDPWGQGTLVT VL: DIQMTQSPSSVSASVGDRVTITCRASQDISSWLAWYQHKPGKAPKLLIYAASSLQSGVPSRFSGSGSGTDFTLTISSLQPEDFATYYCQQANSFPYTFGQGTKLEIK |  | generalized inhibition | inhibited | markedly inhibited | inhibition | inhibits | inhibits | inhibits | about 50% | induces phosphorylation | induces phosphorylation |
